Patent publication US10975360B2, “Process for the modification of alkanes, fatty acids and fatty alcohols” (priority 2016, dated 2021)

Tests used:
[1] = format: cell-based, P. pastoris
Method: (§1) Precultures of P. pastoris transformants were prepared in buffered complex glycerol media (BMGY). BMGY contained: 10 g/l yeast extract, 20 g/l peptone, 3.4 g/l yeast nitrogen base, 10 g/l ammonium sulfate, 100 mM potassium phosphate (pH 6), 0.4 mg/l biotin and 1% (v/v) glycerol. Erlenmeyer flasks (500 ml) containing 50 ml BMGY media were inoculated with single colonies of 24 h old YPD-agar cultures of P. pastoris KM71 mut^s3/CYP505E3 and incubated at 30° C. and 225 rpm for 24 h. The cultures were harvested using pre-weighed centrifuge tubes at 3000 g for 5 min and stored on ice until further use.
(§2) The main cultures for expression were prepared in buffered complex methanol media (BMMY) containing 10 g/l yeast extract, 20 g/l peptone, 3.4 g/l yeast nitrogen base, 10 g/l ammonium sulfate, 100 mM potassium phosphate (pH 6), 0.4 mg/l biotin and 0.5 or 1% (v/v) methanol. Harvested cells from precultures were resuspended in BMMY media to final concentration of 1 g WC per 40 ml (appx. 25 g/l). The resuspended cultures (100 ml) were transferred to 500 ml Erlenmeyer flasks and incubated at 25° C. and 225 rpm for 24 h. The cultures were then harvested at 3000 g for 5 min using pre-weighed centrifuge tubes.
(§3) Different transformants of Pichia pastoris KM71 harbouring the CYP505 genes for SEQ ID Nos 1 to 7 and 9 to 12 were grown and harvested as described above. The harvested cells were resuspended to give 1 g wet cell weight in 40 ml MOPS buffer (200 mM, 100 mM glucose, 100 mM glycerol, pH 8) and 1 ml aliquots of these cell suspensions were transferred to 40 ml amber vials. Dodecane, 1-dodecanol and 1-tetradecanol were added neat to these cell suspensions to give final concentrations of 200 mM in the case of the alcohols and 1 M in the case of dodecane while in the case of dodecanoic acid 20 μl of a 500 mM stock solution (in DMSO) was added to give a final concentration of 10 mM. Transformants harbouring the CYP505 genes for SEQ ID Nos 1 to 4 were tested for the biotransformation of 1-dodecanol, 1-tetradecanol, dodecanoic acid, tetradecanoic acid and dodecane, while those harbouring the CYP505 genes for SEQ ID Nos 5 to 7 and 9 to 12 were only tested for the biotransformation of 1-dodecanol and dodecanoic acid. The biotransformations were incubated at 25° C. and 225 rpm for 24 h. Extractions were performed using ethyl acetate (500 μl×2). The extracts were analyzed using GC/MS.

[2] = Whole cell biotransformation of dodecane by CYP505s expressed in P. pastoris; format: cell-based; details: whole cells of P. pastoris; for products produced from dodecane (GC-MS): 1 M dodecane, 24 h; for ω-7 hydroxylase activity C12alk: C12 alkane, GC-MS peak height
Method: as §1, §2, §3

Molecule | products produced from tetradecanoic acid (GC-MS) [1] | products produced from dodecane (GC-MS) [2] | ω-7 hydroxylase activity C12alk [2] | ω-7 hydroxylase activity C14o [1]
CYP505Ak: CYP505 cytochrome P450 monooxygenase from Aspergillus kawachii, SEQ ID No 2 (protein, Aspergillus niger) MRDAERIPGPTPLPVVGNLFDIDLEHVLQSVIGLANKYGPLFQITINGEKQIFATSQALVDELCDESRFHKAVASGLENLRMLAHDGLFTAYHGERGWGIAHRILVPAFGPLRIQSMFDDMGDLAQQLCLKWARQGASNSINITDDFTRLTLDTIALCTMDFRLNSFYNNDTMHPFVESMLYVLREADVQSALPGIANSVRIMAHRRMLKNIEAMRTIARDIIHDRRKKENPADDLLNTLLNGRDPVTGEGMSDESIIDNVITFLVAGHETTSGLLSFTFYYLVQHPDILKKAQKEVDETVGQAQISVQHLAELPYIDAILKESLRMMPTAPGFTVTPKKAETLGGKWLLNAGQPINVLLPACLRDRSIFGPNADEFSPGRMLAENFSKLPPNSWKPFGNGERSCIGRAFAWQEAQLVVAMILQNFDLVPDDPSYTLRIKETLTIKPDGFRVRATLRHRQTATGLFQHTLSARNDTSLASSSAHFIKKSEDQAPAGGRPICFFYGSNSGTCKALAHRLASDLMPYGFTDQKLAVLDTAVDNLPRDQPVIILTTTYDGQPTDDAKKFVAWLESGKVPALQGISYAVFGCGHHDWTQTFYRIPTLIDELMHKAGATRLAPRGTANAAVSDLFSDLEAWEETSLLPALRETFLLSSSSDLEPLNLHQLQISLSKPRRIDLHKDLMEARVTTVRILTNPDTPEKRHIEFRFQGDTTLRPGDHVNVLPVNPPSTVLRVLAQFNLAPDYSITINSFNTLGLPQATPVSASELFSAYVELSQPATRNNLRILAATAQSDEDKQELIHLQDSYDSLVRDKRVSVLDLLEQFPSVSLPIAAFISMLPALRLRTYSLSLAPSFKPSHGSLTFSVVNEPARNGNRRYLGVGSNYLASLTPGSILYLSPRPAKEAFHLPVDQSRIPIIMICAGSGLAPFLSFIQDRMIWQQQDKPLARALLFFGCGGRFLDDLYHEELSEFEAAGVVDVRRAYSKVLDYDMARGCKYVQDRLVAEANAIRHLWAQDATIYVCGSADMAKGVEGVLEKLLGMLPRERYVTEIYQMQTRDNVSEWLI | only 7-hydroxy tetradecanoic acid | 5-dodecanol | ++ (++ 0.1 million < RA < 1 million) | 
CYP505E1: CYP505 cytochrome P450 monooxygenase from Aspergillus niger, SEQ ID No 3 (protein, listed as Aspergillus kawachii) MKDAERIPGPKPLPVVGNLFDIDPEHSLESIVAFAEKFGPLFQITINGEKQIFATSQALVDELCDELRFHKAVVTGLEILRLLAHDGLFTAYHGERGWGIAHRILVPAFGPLRIRNMLDDMSDVAQQLCLKWARQGGSTSINITEDFTRLTLDTIALCTMGFRLNSFYNNETMHPFVQSMLYVLREADIQANLPGIANSIRVSAQRRMHKNIEAMRTMARGIIQERRKNKNPVDDILNTLLNGRDPVTGEGMSDDSIIDNVITFLIAGHETTSGLLSFTFYFLIQHPHILKKAQEEVDETVGLAQISAQHLAELPYIDAILKESLRLMPTAPGFTVTPKKTEVLGGRWMINAGQPVNVLLPACLRDQSVFGPDADEFRPERMLAENFSKLPPNSWKPFGNGERGCIGRAFAWQEAQLVVAMILQTFDLVPDDPSYQLRIKETLTIKPDGFRIRATLRRGQTATGLSRRSMLVARDGSSEESSNHPAEARGDHAPARGQPVSFFYGSNSGTCKALAHQLASNMMSRGYTTQKLAPLDNAVDNLPRDQPVIILTTTYDGQPTDNAKKFVAWLETGNVLSLQGISYAVFGCGHHDWTQTFYRIPILIDDLMYKAGATRLAPRGAANAAVSDLFSDLEAWEETSLLPALRENFLPSNSTDFDPLNPHQIQLSLSKPRRVDLHKGLIEAKVTAVRVLTSPDTPEKRHLEFCFQGDLSLRPGDHLNILPVNPPSTVSRVLAQFNLAPDYNITVNSFNTLGLPQATPVSASELFSSYVELCQPATRNNLKSLIAATQSDTVKQELNRLYDSYEFIVRDKRVSVLDLLEQFPSISLPIAAFISMLPALRVRTYSLSMAPAFKPSHSSLTFSVINEPAWRGSGQHLGVASNYLASLTSGSIFYFSPRPAKETFHLPKDPSRTPIIMICAGSGLAPFLSFIQDRMVLKQQNKPLAKAFLFFGCRGRSLDDLYHEELSEYEAAGVVEVRRAYSKTPEFDIAKGCRYVQHRLVTEGQAILSLWAQNAIIYVCGSTSMAKGAEAVLQNMLGPLPKERYVTEIF | only 7-hydroxy tetradecanoic acid | 5-dodecanol | + (+ − 0.01 million < RA < 0.1 million) | −
CYP505Pe: CYP505 cytochrome P450 monooxygenase from Penicillium expansum, SEQ ID No 4 (protein, listed as Penicillium expansum) MKDMESIPGPKPLPVVGNLFDIDLENGLQSIIKMAHEFGPLFQITINGQKQIFATSQALVDELCDETRFHKAVMGGIQKLRMLAKDGLFTAYHGERGWGIAHRILMPAFGPLRIRDMFEDMSDVAQQLCFKWARQGSSTSINICDDFTRLTLDTIALCTMGFRLNSYYNSNALHPFIESMLYVLKEAELQSTLPGVANCMRVKAQRRMSKHIDAMRSMARNLIEERRAKPEPVDDLLNTLLNGRDPITGEGMSDDLIISNIITFLIAGHETTSGLLSFTFYYLLQNQDVLERARNEVDEVTGVGPITVQHLAKLPYIDAIMKESLRLMPTAPAFTVTPQKPEVLGGKWMINTGDSVNLLLPVCLRDETVFGPDAGEFRPNRMLEENFSKLPPNSWKPFGNGERGCIGRAFAWQEAQLVVALVLRTFDLAAEDPYYKLRIKETLTIKPDGFRIRATLRHGKSATALSQNNISVGAAASPASSTYLAGNENGRDAAGGQPVSFFYGSNSGTCKALTHRLASTMMTRGFTDQNIAPLDSAVDNLPRDQPTIIITTTYDGQPTDDAKKFVAWLESGNSPSLQGVSYAVFGCGHQDWTKTFYRIPILIDALMYKAGATRLATRGAANAAISDLFSDLEVWEETNLLPGLRESFNPPNNSNFVPLEPHQLQISINKPTRVGMHRDLIEAKVTAIRTLTSPGAPEKRHLEFCIPGETTLRPGDHLNILPVNPPSTVSRALARFNLAPDHSITFESSNALDLPQATPVSAAELFSSYLELSQPATRNNLKELASTTPSDGEKQELLHLYDSYDSLIRAKRASVLDLLEQFTSVTLPITTFISMLPALRVRTYSLSMAPSFKPLHYSLTFSVINEPAWNGNGRYLGVASNYLASLNLGSILYISPRPAKDAFHLPTDQSSKPIIMICAGSGLAPFRSFIQDRMLWQQQDKTLAKALLFFGCRSPQLDDLYHDELSQFEAAGVVEVRRAYSKVPNHYLAKGCRYVQHRLLTETETIQDMWAQDAIIYVCGSGNLAKGVKAVLESMLGTLSERYITEIF | only 7-hydroxy tetradecanoic acid | 5-dodecanol | ++ (++ 0.1 million < RA < 1 million) | −
